The target in one assay is T1, IL-23R (Mus musculus, UniProt Q8K4B4).
T1 construct: Spleens were sterilely removed from mice, sliced, and mashed in the presence of PBS buffer; from tissue; host or cells: mouse spleen: freshly isolated splenocytes, and CD4+ cells differentiated into TH17 cells
T1 sequence (Q8K4B4 24-644): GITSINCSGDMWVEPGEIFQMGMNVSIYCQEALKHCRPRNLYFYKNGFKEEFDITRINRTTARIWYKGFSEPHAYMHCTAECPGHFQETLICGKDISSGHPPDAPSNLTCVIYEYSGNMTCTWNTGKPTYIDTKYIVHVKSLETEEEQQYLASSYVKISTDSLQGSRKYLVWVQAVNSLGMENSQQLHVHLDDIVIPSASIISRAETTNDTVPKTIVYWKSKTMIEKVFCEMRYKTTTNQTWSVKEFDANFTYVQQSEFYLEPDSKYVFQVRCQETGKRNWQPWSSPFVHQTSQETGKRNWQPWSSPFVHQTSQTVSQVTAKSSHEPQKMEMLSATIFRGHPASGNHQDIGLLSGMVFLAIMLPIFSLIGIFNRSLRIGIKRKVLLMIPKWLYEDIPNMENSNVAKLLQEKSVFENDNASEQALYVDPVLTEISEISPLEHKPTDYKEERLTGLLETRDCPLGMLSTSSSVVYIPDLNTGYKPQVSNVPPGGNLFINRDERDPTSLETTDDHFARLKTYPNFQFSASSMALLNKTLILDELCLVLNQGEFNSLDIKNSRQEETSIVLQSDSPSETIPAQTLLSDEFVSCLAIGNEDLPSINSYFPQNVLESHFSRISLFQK
Description: IL-23-induced STAT3 phosphorylation in freshly isolated splenocytes (Alpha Screen SureFire p-STAT-3). Format: cell-based. The protocol:
Spleens were sterilely removed from mice, sliced, and mashed in the presence of PBS buffer, 2% fetal bovine serum, and 1 mM EDTA. Tissue was allowed to pass through a number 26 syringe and was filtered through a 70 μm mesh nylon strainer. Cells were cultured with non-essential amino acids, 2 μg/ml of anti-CD3, and 20 μg/ml of anti-CD-28 as survival and differentiation factors.
Splenocytes or TH17 cells were distributed in 384-well plates (Optiplate; Perkin Elmer) (100,000 cells/well). Cells were pre-incubated for 30 minutes with different concentrations of peptide APG-2305 or APG-2309 and incubated with 25 ng/ml of IL-23 (R&D systems) for 10 minutes. STAT3 phosphorylation was determined with the kit Alpha Screen SureFire p-STAT-3 assay from Perkin Elmer according to manufacturer's instructions. Briefly, after incubation with IL-23, cells were lysed and contacted with (1) protein A acceptor conjugated beads coated with anti-p-STAT-3 (Tyr705) and (2) streptavidin-coated donor beads. The resulting signal was measured with a Perkin Elmer Wallac En vision 2104 Multilabel reader. Graphs were generated using GraphPrism 4 software.
The effect of peptide APG-2305 and APG-2309 derivatives on IL-23-induced STAT3 phosphorylation was determined using CD-1 mice freshly isolated splenocytes and the Alpha Screen p-STAT3 assay (see above materials and methods) (FIGS. 6 and 7). […] As described herein, based on the efficacy of derivatives, we have identified regions in APG-2305 and APG-2309 peptides that are important for their ability to affect IL-23R activity.

Another assay addresses T2, IL-23 receptor (Homo sapiens, UniProt Q5VWK5).
T2 sequence (Q5VWK5 24-629): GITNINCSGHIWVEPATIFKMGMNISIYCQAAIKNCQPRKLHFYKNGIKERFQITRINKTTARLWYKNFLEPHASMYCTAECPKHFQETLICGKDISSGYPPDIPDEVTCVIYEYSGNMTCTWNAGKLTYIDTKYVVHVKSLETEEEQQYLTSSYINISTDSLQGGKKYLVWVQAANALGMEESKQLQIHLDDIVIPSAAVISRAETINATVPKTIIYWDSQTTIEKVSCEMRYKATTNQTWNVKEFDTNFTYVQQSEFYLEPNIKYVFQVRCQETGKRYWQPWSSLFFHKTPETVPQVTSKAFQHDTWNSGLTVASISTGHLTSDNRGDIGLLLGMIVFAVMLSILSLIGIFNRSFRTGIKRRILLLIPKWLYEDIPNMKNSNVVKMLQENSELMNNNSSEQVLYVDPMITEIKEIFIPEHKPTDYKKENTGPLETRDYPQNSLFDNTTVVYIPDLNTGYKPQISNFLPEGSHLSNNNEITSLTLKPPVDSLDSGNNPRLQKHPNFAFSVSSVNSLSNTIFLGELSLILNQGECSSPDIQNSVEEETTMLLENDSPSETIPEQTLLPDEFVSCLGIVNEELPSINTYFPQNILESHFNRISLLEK
Description: IL-23-induced STAT3 phosphorylation in PMA-activated HL-60 monocytes (Western blot). The assay is classed as cell-based. Also on record: endogenous in cells. The settings on record: PMA-activated HL-60 human monocytes; peptide 1 μM, 30 min pre-incubation; IL-23 10 ng/ml, 15 min. The procedure:
FIG. 2 is a graph showing the results of efficacy screening of peptides designed from the IL-23 receptor. HL-60 human monocytes were pre-incubated for 30 minutes with the particular peptides (1 μM) and stimulated for 15 minutes with IL-23 (10 ng/ml). Western Blot analysis of phosphorylated-STAT3 and total STAT3 was performed on cell lysates. Immunoblot densitometry was measured using ImagePro4+ software. […] FIGS. 3A and 3B are graphs showing inhibition of IL-23-induced STAT3 phosphorylation and TNFα generation. […] Western Blot analysis was performed on cell lysates, and immunoblot densitometry was measured using ImagePro4+ software. […] TNFα production was quantified by ELISA 24 hours after stimulation with IL-23 using the Quantikine ELISA Kit (R&D systems). […] D-peptides 2303, 2305, 2307 and 2309 (1 μM) inhibit IL-23-induced STAT3 phosphorylation in phorbol 12-myristate 13-acetate (PMA)-activated human monocytes (HL-60) (FIG. 2).

The target of assay [1] is T3, human IL-23 receptor (IL-23R) on PMA-activated HL-60 human monocytes (human, UniProt Q5VWK5 24-629).
T3 sequence (looked up): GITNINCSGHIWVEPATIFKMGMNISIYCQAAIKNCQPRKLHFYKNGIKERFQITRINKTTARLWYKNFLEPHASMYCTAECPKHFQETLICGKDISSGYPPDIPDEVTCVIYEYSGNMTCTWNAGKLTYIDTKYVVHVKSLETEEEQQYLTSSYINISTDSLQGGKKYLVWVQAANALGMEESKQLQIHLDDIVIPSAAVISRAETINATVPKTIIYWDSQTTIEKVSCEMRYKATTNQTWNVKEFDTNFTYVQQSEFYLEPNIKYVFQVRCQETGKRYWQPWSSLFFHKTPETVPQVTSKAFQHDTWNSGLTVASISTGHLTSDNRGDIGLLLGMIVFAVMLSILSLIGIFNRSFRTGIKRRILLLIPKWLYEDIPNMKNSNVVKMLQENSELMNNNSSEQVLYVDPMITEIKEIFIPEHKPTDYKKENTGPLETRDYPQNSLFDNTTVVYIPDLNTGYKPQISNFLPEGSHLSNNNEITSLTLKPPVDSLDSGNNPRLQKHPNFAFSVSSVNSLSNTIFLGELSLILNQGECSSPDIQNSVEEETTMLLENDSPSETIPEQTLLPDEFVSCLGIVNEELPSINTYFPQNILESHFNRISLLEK
Description: cell-based or functional assay.

Assay [2] concerns the target T4, mouse IL-23 receptor (IL-23R) on mouse splenocytes and differentiated TH17 cells (mouse, UniProt Q8K4B4 24-644).
T4 sequence (looked up): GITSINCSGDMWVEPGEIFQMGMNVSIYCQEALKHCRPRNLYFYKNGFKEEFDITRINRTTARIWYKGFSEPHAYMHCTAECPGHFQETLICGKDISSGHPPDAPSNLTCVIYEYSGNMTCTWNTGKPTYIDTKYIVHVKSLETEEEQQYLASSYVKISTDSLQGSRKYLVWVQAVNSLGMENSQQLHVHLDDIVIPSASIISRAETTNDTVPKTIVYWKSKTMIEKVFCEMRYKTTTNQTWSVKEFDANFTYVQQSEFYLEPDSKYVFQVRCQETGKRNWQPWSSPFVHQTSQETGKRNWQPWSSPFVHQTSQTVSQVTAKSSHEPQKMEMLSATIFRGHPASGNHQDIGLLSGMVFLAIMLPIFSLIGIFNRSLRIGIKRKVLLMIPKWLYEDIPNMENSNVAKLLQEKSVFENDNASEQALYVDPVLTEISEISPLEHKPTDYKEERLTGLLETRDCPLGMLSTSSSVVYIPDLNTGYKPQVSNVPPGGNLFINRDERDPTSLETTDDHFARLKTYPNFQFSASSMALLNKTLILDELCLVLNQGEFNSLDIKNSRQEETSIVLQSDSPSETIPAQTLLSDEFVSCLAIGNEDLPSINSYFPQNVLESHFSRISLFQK
Description: cell-based or functional assay.

[3] abbreviates: mouse splenocytes (FIGS. 6 and 7).

“Also recorded” adds a separate entry of the source. Square brackets hold non-standard residues; d marks the D form. Ends that are not written are not given here.

Turning to “VQAANALGMEESKQLQLHLDDLVL [Peptide 2309-1-1, extended region of peptide 2309 covering part of the loop in D3 domain of IL-23R]”, the “inhibition of STAT3 phosphorylation by derivative” value with IL-23R (mouse splenocytes (FIG. 7)) is 100%. In addition, in the assay with IL-23R (setting [3]), the “increase in activity relative to the parent peptide” value is 50%.

As for TEEEQ [Peptide 2305-10], the “activity of derivative compared to parent peptide, STAT3 phosphorylation assay” value with IL-23R (setting [3]) is given as “increased the activity”.

As for TEEE [Peptide 2305-11], the “activity of derivative compared to parent peptide, STAT3 phosphorylation assay” value with IL-23R (setting [3]) is “increased the activity”.

EQQYL [Peptide 2305-6]: in the assay with IL-23R (setting [3]), the “activity of derivative compared to parent peptide, STAT3 phosphorylation assay” value is reported as “measurable loss of activity”.

Turning to TEEAQQYL [Peptide 2305-1], in the assay with IL-23R (setting [3]), the “activity of derivative compared to parent peptide, STAT3 phosphorylation assay” value is on record as “total loss of activity”.

Consider LPDEVTCV [Peptide 2303], for which the “effect on IL-23-induced STAT3 phosphorylation” value (“effect” below) in the assay with IL-23 receptor is “antagonize IL-23-induced STAT3 phosphorylation; also recorded: demonstrable efficacy; also recorded: inhibit”.

As to EEQQYL [Peptide 2305-5], the “activity of derivative compared to parent peptide, STAT3 phosphorylation assay” value with IL-23R (setting [3]) is given as “measurable loss of activity”.

Turning to TEEEQQY [Peptide 2305-8], the “activity of derivative compared to parent peptide, STAT3 phosphorylation assay” value with IL-23R (setting [3]) is listed as “abolished the activity”.

As for KKYLVWVQ [Peptide 2307], in the assay with IL-23 receptor, the “effect” value was “antagonize IL-23-induced STAT3 phosphorylation; also recorded: demonstrable efficacy; also recorded: inhibit”.

In the case of MAESKQLQL [Peptide 2309-1], in the assay with IL-23R (setting [3]), the “activity of derivative compared to parent peptide, STAT3 phosphorylation assay” value is “increases the activity”.

DLSSGYPPDI [Peptide 2301]: in the assay with IL-23 receptor, the “effect” value is reported as “agonistic properties; also recorded: agonist of IL-23R biological activity”.

In the case of TEEEQQ [Peptide 2305-9], in the assay with IL-23R (setting [3]), the “activity of derivative compared to parent peptide, STAT3 phosphorylation assay” value is reported as “abolished the activity”.

Take ESKQLQL [Peptide 2309-3]: the “activity of derivative compared to parent peptide, STAT3 phosphorylation assay” value with IL-23R (setting [3]) was “increases the activity”.

Turning to “LVLDDLHLQLQKSEEMGLANAAQV (not fully specified (some residues); also: D-amino acids, extent not given here) [Peptide 2309-2-1]”, the “activity of derivative compared to parent peptide, STAT3 phosphorylation assay” value with IL-23R (setting [3]) was “better efficacy than the parent 2309 peptide”.

B1: peptide APG-2309 (peptide)
peptide: [dM][dE][dE][dS][dK][dQ][dL][dQ][dL]
For B1, in assay [1], the “inhibition of IL-23-induced STAT3 phosphorylation in PMA-activated HL-60 monocytes, IC50” value was found to be 2 nM and the “inhibition of IL-23-induced tumor necrosis factor (TNF) formation in PMA-activated HL-60 monocytes (ELISA), IC50” value amounted to 1.6 nM. For the same molecule, the “IC50 for IL-23-induced STAT3 phosphorylation in mouse splenocytes (25 ng/ml mouse IL-23)” value in assay [2] worked out at 2 nM.

B2: APG-2305-13 (peptide)
peptide: TEEEAAYL
With B2, in assay [2], the “inhibition of IL-23-induced STAT3 phosphorylation in mouse splenocytes (FIG. 6), change relative to parent 2305” value is 25%.
